Experimental data published in patent publication US20250282876A1, “STABLE Fc FRAGMENTS, CONJUGATES, COMPOSITIONS, AND METHODS OF USE” (PURDUE RESEARCH FOUNDATION, priority 2022, published 2025).

Experiments:
[1] = molecular target: T1, CD16a (176F) (Homo sapiens, UniProt P08637); experiment: Bio Layer Interferometry (Octet) binding of monomeric Fc variants to FcγR; settings: huFcγR variant CD16a(176F); 1:1 Langmuir fit; * denotes weak binding/inaccurate KD
T1 construct: purchased Beijing Sino Biological Inc

[2] = molecular target: T2, CD32b (Homo sapiens, UniProt P31994); experiment: as above; settings: huFcγR variant CD32b; 1:1 Langmuir fit; * denotes weak binding/inaccurate KD
T2 construct: purchased Beijing Sino Biological Inc
T2 sequence (P31994 43-310): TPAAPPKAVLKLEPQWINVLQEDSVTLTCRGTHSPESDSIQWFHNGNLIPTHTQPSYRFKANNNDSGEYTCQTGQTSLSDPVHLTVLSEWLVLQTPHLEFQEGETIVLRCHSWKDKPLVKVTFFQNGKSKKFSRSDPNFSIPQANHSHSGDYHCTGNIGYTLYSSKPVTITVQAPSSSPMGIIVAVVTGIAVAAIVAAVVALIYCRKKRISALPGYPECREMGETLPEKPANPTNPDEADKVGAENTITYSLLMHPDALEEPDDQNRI

[3] = molecular target: FcγRIIIa (Homo sapiens, UniProt P08637); experiment: Binding affinity of mFc mutant compared with wild-type (Example 1 statement); settings: comparative with wild-type (WT)
[4] = tested on: antibody-dependent cellular phagocytosis (ADCP); experiment: ADCP activity of mFc mutant (Example 1 statement); assay type: cell-based; settings: compared to WT
[5] = tested on: antibody-dependent cell-mediated cytotoxicity (ADCC); experiment: ADCC activity of mFc mutant (Example 1 statement); assay type: cell-based; settings: compared to WT
[6] = molecular target: T3, FcγRIIb (Homo sapiens, UniProt P31994); experiment: Binding of mFc mutant compared with wild-type (Example 1 statement); settings: as compared to WT
T3 sequence (P31994 43-310): T2 sequence (P31994 43-310)

T1 sequence (P08637 17-254): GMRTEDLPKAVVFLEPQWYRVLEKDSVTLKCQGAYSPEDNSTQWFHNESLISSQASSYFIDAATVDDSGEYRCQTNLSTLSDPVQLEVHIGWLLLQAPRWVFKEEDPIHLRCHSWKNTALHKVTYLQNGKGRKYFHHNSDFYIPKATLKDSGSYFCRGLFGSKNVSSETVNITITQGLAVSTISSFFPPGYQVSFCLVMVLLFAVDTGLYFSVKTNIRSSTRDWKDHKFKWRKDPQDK
Sequence of FcγRIIIa (P08637 17-254): as above

Mono-Fc WT: wild-type Fc region of human IgG1 (aa 216-447), expressed as about 26 kDa monomeric form [reference compound]
Kd [1]: < 1 pM
Kd [2]: 3760 nM

Mono-Fc DLE: modified Fc region of human IgG1 with DLE mutation (Ser239Asp/Ala330Leu/Ile332Glu)
binding affinity to FcγRIIIa [3]: increased FcγRIIIa affinity
ADCP activity [4]: enhanced
ADCC activity [5]: enhanced
binding to inhibitory FcγRIIb [6]: low binding
Kd [2]: 1.34 nM
